Test results published in article doi:10.1101/2023.05.29.542693 (bioRxiv, 2023).

Experiments:
[1] = molecular target: Escherichia coli GroEL (wild-type, tetradecamer) (E. coli, UniProt P0A6F5 1-548); assay: cryo-EM structure
[2] = molecular target: the molecule itself; assay: cryo-EM structure

Escherichia coli GroEL (wild-type, tetradecamer), sequence (P0A6F5 whole entry): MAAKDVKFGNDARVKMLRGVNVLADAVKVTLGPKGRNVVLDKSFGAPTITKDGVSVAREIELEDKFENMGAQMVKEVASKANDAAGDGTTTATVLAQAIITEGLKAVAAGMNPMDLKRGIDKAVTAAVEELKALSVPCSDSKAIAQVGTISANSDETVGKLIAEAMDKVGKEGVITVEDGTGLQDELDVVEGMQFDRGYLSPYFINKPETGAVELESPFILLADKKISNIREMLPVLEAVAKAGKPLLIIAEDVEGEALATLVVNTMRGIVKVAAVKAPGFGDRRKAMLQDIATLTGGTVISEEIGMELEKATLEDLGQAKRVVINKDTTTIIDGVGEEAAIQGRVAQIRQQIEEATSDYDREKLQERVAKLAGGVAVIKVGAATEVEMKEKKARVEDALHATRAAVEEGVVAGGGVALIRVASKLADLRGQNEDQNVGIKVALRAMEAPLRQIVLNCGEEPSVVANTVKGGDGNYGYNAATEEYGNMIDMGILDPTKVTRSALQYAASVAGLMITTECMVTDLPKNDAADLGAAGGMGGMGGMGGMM

binding result [1]: binds
B1: Escherichia coli GroES (heptameric co-chaperonin) (natural protein)
chain: MNIRPLHDRVIVKRKEVETKSAGGIVLTGSAAAKSTRGEVLAVGNGRILENGEVKPLDVKVGDIVIFNDGYGVKSEKIDNEEVLIMSESDILAIVEA
binding result [2]: binds
